Data from publication PMC10368004.

Assays:
Assay in all cases: FM-AFM imaging
Settings in all cases: remark: other sources report otherwise
annexin A5, P08758 [1] = target: T1, annexin A5, P08758
T1 chain: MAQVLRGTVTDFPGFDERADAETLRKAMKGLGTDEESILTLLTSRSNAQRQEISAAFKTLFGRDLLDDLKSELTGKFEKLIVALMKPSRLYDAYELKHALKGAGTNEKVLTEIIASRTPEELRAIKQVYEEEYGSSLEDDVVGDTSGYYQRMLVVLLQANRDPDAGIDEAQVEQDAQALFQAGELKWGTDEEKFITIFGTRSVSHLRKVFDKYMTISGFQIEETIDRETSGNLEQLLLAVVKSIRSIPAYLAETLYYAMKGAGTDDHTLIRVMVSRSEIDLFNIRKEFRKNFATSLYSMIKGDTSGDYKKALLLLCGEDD

annexin A5, P08758 [2] = target: T1, annexin A5, P08758
annexin A5, P08758 [3] = target: T1, annexin A5, P08758

percentage of unoccupied hollow sites (vacancies, sites without an H-trimer) (annexin A5, P08758 [1]): 56.1%
percentage of unoccupied hollow sites (vacancies, sites without an H-trimer) (annexin A5, P08758 [2]): 65.9%
percentage of unoccupied hollow sites (vacancies, sites without an H-trimer) (annexin A5, P08758 [3]): 73.6%
stoichiometry N (annexin A5, P08758 [3]): 3
B1: annexin A5, P08758 1-320 (natural protein)
chain: MAQVLRGTVTDFPGFDERADAETLRKAMKGLGTDEESILTLLTSRSNAQRQEISAAFKTLFGRDLLDDLKSELTGKFEKLIVALMKPSRLYDAYELKHALKGAGTNEKVLTEIIASRTPEELRAIKQVYEEEYGSSLEDDVVGDTSGYYQRMLVVLLQANRDPDAGIDEAQVEQDAQALFQAGELKWGTDEEKFITIFGTRSVSHLRKVFDKYMTISGFQIEETIDRETSGNLEQLLLAVVKSIRSIPAYLAETLYYAMKGAGTDDHTLIRVMVSRSEIDLFNIRKEFRKNFATSLYSMIKGDTSGDYKKALLLLCGEDD
